Experimental data reported in article PMC7439511.

Target: GST-PHD^RACK7 (human)
Test: MST

Kd: 6 µM
Substance: H3.3G34R peptide (amino acids 22 to 44) (from UniProt P84243 23-45)
